# Data as given in publication PMC9812531 (Nature structural & molecular biology, 2021).
# Where two headings read alike, the source gives them in different places.
# T1: human SPTLC2 (human, UniProt O15270 1-562, pyridoxal 5'-phosphate (PLP) in aldimine linkage to Lys379)
# T1 sequence (looked up): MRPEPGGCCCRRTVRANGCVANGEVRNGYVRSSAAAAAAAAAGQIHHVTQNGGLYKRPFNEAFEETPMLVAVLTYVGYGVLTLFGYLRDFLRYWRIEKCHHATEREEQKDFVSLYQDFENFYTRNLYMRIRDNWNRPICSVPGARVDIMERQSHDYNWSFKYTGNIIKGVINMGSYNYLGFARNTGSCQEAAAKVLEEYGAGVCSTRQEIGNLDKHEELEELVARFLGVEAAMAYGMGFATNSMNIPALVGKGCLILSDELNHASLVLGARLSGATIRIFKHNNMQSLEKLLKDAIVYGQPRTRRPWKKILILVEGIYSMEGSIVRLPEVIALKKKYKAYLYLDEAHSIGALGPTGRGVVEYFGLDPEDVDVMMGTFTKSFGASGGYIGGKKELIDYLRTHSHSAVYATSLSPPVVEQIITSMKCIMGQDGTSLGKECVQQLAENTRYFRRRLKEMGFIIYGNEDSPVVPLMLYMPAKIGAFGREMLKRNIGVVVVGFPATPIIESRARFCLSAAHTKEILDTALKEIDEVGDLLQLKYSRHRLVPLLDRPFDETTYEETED
# How the values were obtained:
# Assay in all cases: cryo-EM structure
# human SPTLC2 = molecular target: T1, human SPTLC2
# cryo-EM structure [1] = molecular target: the molecule itself
# cryo-EM structure [2] = molecular target: the molecule itself; remark: listed apart in the source
binder,measurement,setting,value
human ssSPTa (natural protein) MAGMALARAWKQMSWFYYQYLLVTALYMLEPWERTVFNSMLVSIVGMALYTGYVFMPQHIMAILHYFEIVQ,stoichiometry N,human SPTLC2,1
human SPTLC1 (natural protein) MATATEQWVLVEMVQALYEAPAYHLILEGILILWIIRLLFSKTYKLQERSDLTVKEKEELIEEWQPEPLVPPVPKDHPALNYNIVSGPPSHKTVVNGKECINFASFNFLGLLDNPRVKAAALASLKKYGVGTCGPRGFYGTFDVHLDLEDRLAKFMKTEEAIIYSYGFATIASAIPAYSKRGDIVFVDRAACFAIQKGLQASRSDIKLFKHNDMADLERLLKEQEIEDQKNPRKARVTRRFIVVEGLYMNTGTICPLPELVKLKYKYKARIFLEESLSFGVLGEHGRGVTEHYGINIDDIDLISANMENALASIGGFCCGRSFVIDHQRLSGQGYCFSASLPPLLAAAAIEALNIMEENPGIFAVLKEKCGQIHKALQGISGLKVVGESLSPAFHLQLEESTGSREQDVRLLQEIVDQCMNRSIALTQARYLEKEEKCLPPPSIRVVVTVEQTEEELERAASTIKEVAQAVLL,stoichiometry N,human SPTLC2,1
same,binding result,cryo-EM structure [1],binds
"human SPT complex (SPTLC1-SPTLC2-ssSPTa), one protomer (complex, pyridoxal 5'-phosphate (PLP) in aldimine linkage to Lys379) chain 1: MATATEQWVLVEMVQALYEAPAYHLILEGILILWIIRLLFSKTYKLQERSDLTVKEKEELIEEWQPEPLVPPVPKDHPALNYNIVSGPPSHKTVVNGKECINFASFNFLGLLDNPRVKAAALASLKKYGVGTCGPRGFYGTFDVHLDLEDRLAKFMKTEEAIIYSYGFATIASAIPAYSKRGDIVFVDRAACFAIQKGLQASRSDIKLFKHNDMADLERLLKEQEIEDQKNPRKARVTRRFIVVEGLYMNTGTICPLPELVKLKYKYKARIFLEESLSFGVLGEHGRGVTEHYGINIDDIDLISANMENALASIGGFCCGRSFVIDHQRLSGQGYCFSASLPPLLAAAAIEALNIMEENPGIFAVLKEKCGQIHKALQGISGLKVVGESLSPAFHLQLEESTGSREQDVRLLQEIVDQCMNRSIALTQARYLEKEEKCLPPPSIRVVVTVEQTEEELERAASTIKEVAQAVLL chain 2: MRPEPGGCCCRRTVRANGCVANGEVRNGYVRSSAAAAAAAAAGQIHHVTQNGGLYKRPFNEAFEETPMLVAVLTYVGYGVLTLFGYLRDFLRYWRIEKCHHATEREEQKDFVSLYQDFENFYTRNLYMRIRDNWNRPICSVPGARVDIMERQSHDYNWSFKYTGNIIKGVINMGSYNYLGFARNTGSCQEAAAKVLEEYGAGVCSTRQEIGNLDKHEELEELVARFLGVEAAMAYGMGFATNSMNIPALVGKGCLILSDELNHASLVLGARLSGATIRIFKHNNMQSLEKLLKDAIVYGQPRTRRPWKKILILVEGIYSMEGSIVRLPEVIALKKKYKAYLYLDEAHSIGALGPTGRGVVEYFGLDPEDVDVMMGTFTKSFGASGGYIGGKKELIDYLRTHSHSAVYATSLSPPVVEQIITSMKCIMGQDGTSLGKECVQQLAENTRYFRRRLKEMGFIIYGNEDSPVVPLMLYMPAKIGAFGREMLKRNIGVVVVGFPATPIIESRARFCLSAAHTKEILDTALKEIDEVGDLLQLKYSRHRLVPLLDRPFDETTYEETED chain 3: MAGMALARAWKQMSWFYYQYLLVTALYMLEPWERTVFNSMLVSIVGMALYTGYVFMPQHIMAILHYFEIVQ",stoichiometry N,cryo-EM structure [2],2
"human SPT-ORMDL3 complex (SPTLC1-SPTLC2-ssSPTa-ORMDL3), one protomer (complex, pyridoxal 5'-phosphate (PLP) in aldimine linkage to Lys379) chain 1: MATATEQWVLVEMVQALYEAPAYHLILEGILILWIIRLLFSKTYKLQERSDLTVKEKEELIEEWQPEPLVPPVPKDHPALNYNIVSGPPSHKTVVNGKECINFASFNFLGLLDNPRVKAAALASLKKYGVGTCGPRGFYGTFDVHLDLEDRLAKFMKTEEAIIYSYGFATIASAIPAYSKRGDIVFVDRAACFAIQKGLQASRSDIKLFKHNDMADLERLLKEQEIEDQKNPRKARVTRRFIVVEGLYMNTGTICPLPELVKLKYKYKARIFLEESLSFGVLGEHGRGVTEHYGINIDDIDLISANMENALASIGGFCCGRSFVIDHQRLSGQGYCFSASLPPLLAAAAIEALNIMEENPGIFAVLKEKCGQIHKALQGISGLKVVGESLSPAFHLQLEESTGSREQDVRLLQEIVDQCMNRSIALTQARYLEKEEKCLPPPSIRVVVTVEQTEEELERAASTIKEVAQAVLL chain 2: MRPEPGGCCCRRTVRANGCVANGEVRNGYVRSSAAAAAAAAAGQIHHVTQNGGLYKRPFNEAFEETPMLVAVLTYVGYGVLTLFGYLRDFLRYWRIEKCHHATEREEQKDFVSLYQDFENFYTRNLYMRIRDNWNRPICSVPGARVDIMERQSHDYNWSFKYTGNIIKGVINMGSYNYLGFARNTGSCQEAAAKVLEEYGAGVCSTRQEIGNLDKHEELEELVARFLGVEAAMAYGMGFATNSMNIPALVGKGCLILSDELNHASLVLGARLSGATIRIFKHNNMQSLEKLLKDAIVYGQPRTRRPWKKILILVEGIYSMEGSIVRLPEVIALKKKYKAYLYLDEAHSIGALGPTGRGVVEYFGLDPEDVDVMMGTFTKSFGASGGYIGGKKELIDYLRTHSHSAVYATSLSPPVVEQIITSMKCIMGQDGTSLGKECVQQLAENTRYFRRRLKEMGFIIYGNEDSPVVPLMLYMPAKIGAFGREMLKRNIGVVVVGFPATPIIESRARFCLSAAHTKEILDTALKEIDEVGDLLQLKYSRHRLVPLLDRPFDETTYEETED chain 3: MAGMALARAWKQMSWFYYQYLLVTALYMLEPWERTVFNSMLVSIVGMALYTGYVFMPQHIMAILHYFEIVQ chain 4: MNVGTAHSEVNPNTRVMNSRGIWLSYVLAIGLLHIVLLSIPFVSVPVVWTLTNLIHNMGMYIFLHTVKGTPFETPDQGKARLLTHWEQMDYGVQFTASRKFLTITPIVLYFLTSFYTKYDQIHFVLNTVSLMSVLIPKLPQLHGVRIFGINKY",stoichiometry N,cryo-EM structure [1],2
